Square brackets hold non-standard residues; d marks the D form. Ends that are not written are not given here. * marks the point of attachment. Pyruvoyl = CC(=O)C(=O)*
B1: E. coli PSD α-subunit, from PSD_(1–287), conjugated with 8:0/8:0 PE (domain or fragment, Escherichia coli, UniProt P0A8K1 254-287, looked up)
chain: [Pyruvoyl]TVINLFAPGKVNLVEQLESLSVTKIGQPLAVST
modifications: not fully specified (residue 1); also: 8:0/8:0 PE linked to Pvl-254 by reduced Schiff base
notes: α-chain of E. coli phosphatidylserine decarboxylase, residues 254-287 of the construct PSD_(1–287); also called 8PE-conjugated α-chain; source: E. coli BL21(DE3), purified PSD_(1–287), conjugated with 8PE by NaCNBH3-dependent reduction of the Schiff base
B2: E. coli PSD α-subunit, from PSD_(1–287), conjugated with 10:0/10:0 PE (domain or fragment, Escherichia coli, UniProt P0A8K1 254-287, looked up)
chain: [Pyruvoyl]TVINLFAPGKVNLVEQLESLSVTKIGQPLAVST
modifications: not fully specified (residue 1); also: 10:0/10:0 PE linked to Pvl-254 by reduced Schiff base
notes: α-chain of E. coli phosphatidylserine decarboxylase, residues 254-287 of the construct PSD_(1–287); also called 10PE-conjugated α-chain
B3: E. coli phosphatidylserine decarboxylase (PSD) β-subunit, from PSD_(1–287) (domain or fragment, Escherichia coli, UniProt P0A8K1 1-253, looked up)
chain: MLNSFKLSLQYILPKLWLTRLAGWGASKRAGWLTKLVIDLFVKYYKVDMKEAQKPDTASYRTFNEFFVRPLRDEVRPIDTDPNVLVMPADGVISQLGKIEEDKILQAKGHNYSLEALLAGNYLMADLFRNGTFVTTYLSPRDYHRVHMPCNGILREMIYVPGDLFSVNHLTAQNVPNLFARNERVICLFDTEFGPMAQILVGATIVGSIETVWAGTITPPREGIIKRWTWPAGENDGSVALLKGQEMGRFKLG
notes: Made as one proenzyme chain (residues 1-287 with a C-terminal His6 tag) that cuts itself; the β-chain is the N-terminal product; also called β-chain; beta chain; source: E. coli BL21(DE3), DDM-solubilised, purified (HisTrap, SEC) as auto-cleaved PSD_(1–287)
B4: 10PE-PSD: αβ-heterodimer of E. coli PSD_(1–287) with 10:0/10:0 PE linked to Pvl-254 (complex, Escherichia coli)
chain 1: B3 chain
chain 2: STVINLFAPGKVNLVEQLESLSVTKIGQPLAVST
modifications: 10:0/10:0 PE covalently linked to the pyruvoyl residue Pvl-254 (reduced Schiff base)
notes: β-chain of E. coli phosphatidylserine decarboxylase, residues 1-253; α-chain of E. coli phosphatidylserine decarboxylase, residues 254-287
B5: 8PE-PSD: αβ-heterodimer of E. coli PSD_(1–287) with 8:0/8:0 PE linked to Pvl-254 (complex, Escherichia coli)
chain 1: B3 chain
chain 2: B4 chain 2
modifications: 8:0/8:0 PE covalently linked to the pyruvoyl residue Pvl-254 (reduced Schiff base)
notes: β-chain of E. coli phosphatidylserine decarboxylase, residues 1-253; α-chain of E. coli phosphatidylserine decarboxylase, residues 254-287; source: E. coli BL21(DE3), purified PSD_(1–287), conjugated with 8PE by NaCNBH3-dependent reduction of the Schiff base
B6: E. coli PSD_(1–287) αβ-heterodimer, apo (complex, Escherichia coli)
chain 1: B3 chain
chain 2: B4 chain 2
modifications: pyruvoyl residue (Pvl-254) at the N-terminus, formed from Ser-254 on auto-cleavage
notes: β-chain of E. coli phosphatidylserine decarboxylase, residues 1-253; α-chain of E. coli phosphatidylserine decarboxylase, residues 254-287; The unit that pairs with itself into the (αβ)2 heterotetramer; also called Apo-PSD1; Apo-PSD2; source: E. coli BL21(DE3), DDM-solubilised, purified (HisTrap, SEC)
B7: E. coli phosphatidylserine decarboxylase (PSD) α-subunit, from PSD_(1–287), apo (domain or fragment, Escherichia coli, UniProt P0A8K1 254-287, looked up)
chain: [Pyruvoyl]TVINLFAPGKVNLVEQLESLSVTKIGQPLAVST
notes: No removal of the His6 tag is described; also called α-chain; alpha chain; source: E. coli BL21(DE3), DDM-solubilised, purified (HisTrap, SEC) as auto-cleaved PSD_(1–287)

What was measured:
PSD1–322 [1] = target: T1, PSD1–322 (Escherichia coli, UniProt P0A8K1, H144A); assay: Schiff base reduction with NaCNBH3, MALDI-TOF; type: binding; conditions: 1 mM lipid, 50 mM NaCNBH3, 37 °C, 15 h; covalent; active site Pvl-254
T1 construct: gene psd; full length (1-322), C-terminal His6 tag, auto-cleaved 253/254 with Ser254 turned to pyruvoyl, expressed in E. coli BL21(DE3), solubilised in DDM
T1 sequence (P0A8K1 254-322): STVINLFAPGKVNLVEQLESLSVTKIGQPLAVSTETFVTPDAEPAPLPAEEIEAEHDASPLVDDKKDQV
T1 sequence (P0A8K1 1-253 H144A): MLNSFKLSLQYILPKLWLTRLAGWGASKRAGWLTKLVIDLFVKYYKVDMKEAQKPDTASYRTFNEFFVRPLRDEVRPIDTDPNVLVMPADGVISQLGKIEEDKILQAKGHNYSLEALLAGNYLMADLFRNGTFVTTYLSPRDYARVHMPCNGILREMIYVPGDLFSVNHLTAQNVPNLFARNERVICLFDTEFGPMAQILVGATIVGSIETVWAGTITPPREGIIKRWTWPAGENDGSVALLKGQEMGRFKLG

PSD1–322 [2] = target: T2, PSD1–322 (Escherichia coli, UniProt P0A8K1, H144N); assay: Schiff base reduction with NaCNBH3, MALDI-TOF; type: binding; conditions: 1 mM lipid, 50 mM NaCNBH3, 37 °C, 15 h; covalent; active site Pvl-254
T2 construct: gene psd; full length (1-322), C-terminal His6 tag, auto-cleaved 253/254 with Ser254 turned to pyruvoyl, expressed in E. coli BL21(DE3), solubilised in DDM
T2 sequence (P0A8K1 1-253 H144N): as the sequence (P0A8K1 1-253 H144A) above, with A144N counted along it
T2 sequence (P0A8K1 254-322): as the sequence (P0A8K1 254-322) above

PSD1–287 [3] = target: T3, PSD1–287 (Escherichia coli, UniProt P0A8K1); assay: X-ray structure ([…] Å); NaCNBH3 reduction, MALDI-TOF; type: binding; conditions: 1 mM lipid, 50 mM NaCNBH3, 37 °C, 14 h, pH 7.5; covalent; reduced Schiff base to Pvl-254
T3 construct: gene psd

PSD1–287 [4] = target: T3, PSD1–287; assay: Schiff base reduction with NaCNBH3, MALDI-TOF; type: binding; conditions: 1 mM lipid, 50 mM NaCNBH3, 37 °C, 14 h, pH 7.5, covalent, decarboxylated
[5] = target: B3; assay: crystal structure; PE-conjugated PSD_(1–287) in DDM; sitting drop vapor diffusion at 20 °C; 8PE-PSD (2.12 Å) and 10PE-PSD (2.70 Å); conditions: both partners purified
[6] = target: the molecule itself; assay: crystal structure; apo PSD_(1–287) in DDM; sitting drop vapor diffusion at 20 °C; two crystal forms, Apo-PSD1 (1.90 Å) and Apo-PSD2 (2.63 Å)
[7] = target: the molecule itself; assay: crystal structure; PE-conjugated PSD_(1–287) in DDM; sitting drop vapor diffusion at 20 °C; 8PE-PSD (2.12 Å) and 10PE-PSD (2.70 Å)
[8] = target: B3; assay: crystal structure; apo PSD_(1–287) in DDM; sitting drop vapor diffusion at 20 °C; two crystal forms, Apo-PSD1 (1.90 Å) and Apo-PSD2 (2.63 Å); conditions: both partners purified

CCCCCCCC(=O)OC[C@H](COP(=O)(O)OCCN)OC(=O)CCCCCCC [8PE, 8:0/8:0 PE]
Schiff base reduction with NaCNBH3, MALDI-TOF (PSD1–322 [1]): these proteins were able to form an adduct with 8PE, albeit at a reduced efficiency
Schiff base reduction with NaCNBH3, MALDI-TOF (PSD1–322 [2]): these proteins were able to form an adduct with 8PE, albeit at a reduced efficiency
% conjugation (PSD1–287 [3]): 98%

CCCCCCCCCC(=O)OC[C@H](COP(=O)(O)OC[C@H](N)C(=O)O)OC(=O)CCCCCCCCC [10PS, 10:0/10:0 PS]
% conjugation (PSD1–287 [4]; trapped as 10PE adduct of Pvl-254): 97%

CCCCCCCCCCCCCC(=O)OC[C@H](COP(=O)(O)OC[C@H](N)C(=O)O)OC(=O)CCCCCCCCCCCCC [14PS, 14:0/14:0 PS]
% conjugation (PSD1–287 [4]; trapped as 14PE adduct of Pvl-254): 94%

B1
binding result [5]: binds

B2
binding result [5]: binds

B3
binding result [6]: binds

B4
stoichiometry N [7]: 2 αβ-heterodimers

B5
stoichiometry N [7]: 2 αβ-heterodimers

B6
stoichiometry N [6]: 2 αβ-heterodimers

B7
binding result [8]: binds

Source: PMC7952604, “Structural insights into phosphatidylethanolamine formation in bacterial membrane biogenesis” (Scientific Reports, 2021)
